Measurements: paper PMC3093369
Where “and” joins values, the source holds several entries; their conditions need not be identical. Identical values can stand only once.

Assays:
[1] = target: recombinant Fasciola hepatica helminth defence molecule-1 (FhHDM-1) (Fasciola hepatica); assay: AUC; sedimentation velocity, 0.1 mg/ml, 20°C, 10 mM Tris, 50 mM NaF, pH 7.3, 40,000 rpm; c(s) and c(M) distributions (SEDFIT)
[2] = target: recombinant Fasciola hepatica helminth defence molecule-1 (FhHDM-1) (Fasciola hepatica); assay: AUC; sedimentation velocity, 0.1 mg/ml, 20°C, 10 mM sodium citrate, 50 mM NaF, pH 4.5, 40,000 rpm; c(s) and c(M) distributions (SEDFIT)

## recombinant Fasciola hepatica helminth defence molecule-1 (FhHDM-1) (natural protein)
[1]
  stoichiometry N: 3
[2]
  stoichiometry N: 2 and 5
